Experimental data taken from doi:10.1101/2023.04.03.535362 (bioRxiv, 2023).

B1: dT30 ssDNA (ssDNA)
DNA: TTTTTTTTTTTTTTTTTTTTTTTTTTTTTT
B2: Histidine-tagged human RAD52 N-terminal domain (1-212) (domain or fragment, UniProt P43351 1-212, looked up)
chain: MSGTEEAILGGRDSHPAAGGGSVLCFGQCQYTAEEYQAIQKALRQRLGPEYISSRMAGGGQKVCYIEGHRVINLANEMFGYNGWAHSITQQNVDFVDLNNGKFYVGVCAFVRVQLKDGSYHEDVGYGVSEGLKSKALSLEKARKEAVTDGLKRALRSFGNALGNCILDKDYLRSLNKLPRQLPLEVDLTKAKRQDLEPSVEEARYNSCRPNM

Key:
RAD52 FL = biological target: T1, RAD52 FL (human, UniProt P43351 1-418); assay: fluorescence polarization
T1 sequence: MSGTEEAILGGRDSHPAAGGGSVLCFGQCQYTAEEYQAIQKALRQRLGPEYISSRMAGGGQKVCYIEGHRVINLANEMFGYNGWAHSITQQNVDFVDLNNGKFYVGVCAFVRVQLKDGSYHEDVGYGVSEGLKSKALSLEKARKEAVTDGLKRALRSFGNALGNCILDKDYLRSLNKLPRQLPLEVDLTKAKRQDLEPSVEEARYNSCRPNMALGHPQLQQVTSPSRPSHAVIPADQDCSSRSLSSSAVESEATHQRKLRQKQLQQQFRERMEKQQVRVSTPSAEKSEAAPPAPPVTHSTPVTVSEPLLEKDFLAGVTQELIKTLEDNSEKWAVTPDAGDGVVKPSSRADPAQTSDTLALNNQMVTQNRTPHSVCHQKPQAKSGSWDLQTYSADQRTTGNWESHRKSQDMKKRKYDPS

dynamic light scattering = biological target: the molecule itself; assay: dynamic light scattering

| Binder | Kd (RAD52 FL) [nM] | stoichiometry N (dynamic light scattering) |
| --- | --- | --- |
| B1 | 37.2 ± 0.4 |  |
| B2 |  | ~11 |
